# Measured values as given in publication PMC6471494, “Functional Mechanisms Underlying the Antimicrobial Activity of the Oryza sativa Trx-like Protein” (International Journal of Molecular Sciences, 2019).
# Target: the molecule itself
# Assay: negative-stain transmission electron microscopy; SEC fractions a, b and c of OsTDX on glow-discharged carbon-coated copper grids, 1% uranyl acetate, FEI Tecnai 20 at 200 kV
protein,measurement,value
"Oryza sativa Tetratricopeptide Domain-containing thioredoxin (OsTDX) protein (natural protein, UniProt Q6ES52 1-317, looked up, OsTDX, Oryza sativa TPR repeat-containing thioredoxin; full-length cDNA amplified from a rice leaf cDNA library and cloned into pGEX-2T; predicted MW ~35 kDa; also called rice Trx-like protein; recombinant OsTDX; source: E. coli BL21(DE3), purified (glutathione-agarose, GST cleaved by thrombin, FPLC SEC 650 column)) MATAGASSFEDEIMESDIELEGEAVEPDNDPPQKMGDPSVEVSDEKRDQAQLCKNKGVDAFSEGKLDEAIEHLTEAIVLNPTSAIAYATRAVIFVKSKKPNAAIRDADAALKINPDSAKGYKSRGMAKAMLGKWEEAAQDLRMAAKLDYDEEIGAELKKVEPNVLKIEEHRKKYERLRKERDIKKAEMEKQRKHAEEVSAASAALKDGDVIAIHSSSELDTKLKAASSLSRLVVLYFTAAWCGPCRFIGPVCKSLAEKHRNVVFLKVDIDELNSVAYRWNVSSVPSFFFVRNGKEIDKVVGADKNGLERKVAQHGSS",stoichiometry N,2
